Assay results from patent US8053186 (OHIO STATE UNIVERSITY RESEARCH FOUNDATION, dated 2011).

B1: DGCR8 (endogenous) (other, human, UniProt Q8WYQ5 1-773, looked up)
chain: METDESPSPLPCGPAGEAVMESRARPFQALPREQSPPPPLQTSSGAEVMDVGSGGDGQSELPAEDPFNFYGASLLSKGSFSKGRLLIDPNCSGHSPRTARHAPAVRKFSPDLKLLKDVKISVSFTESCRSKDRKVLYTGAERDVRAECGLLLSPVSGDVHACPFGGSVGDGVGIGGESADKKDEENELDQEKRVEYAVLDELEDFTDNLELDEEGAGGFTAKAIVQRDRVDEEALNFPYEDDFDNDVDALLEEGLCAPKKRRTEEKYGGDSDHPSDGETSVQPMMTKIKTVLKSRGRPPTEPLPDGWIMTFHNSGVPVYLHRESRVVTWSRPYFLGTGSIRKHDPPLSSIPCLHYKKMKDNEEREQSSDLTPSGDVSPVKPLSRSAELEFPLDEPDSMGADPGPPDEKDPLGAEAAPGALGQVKAKVEVCKDESVDLEEFRSYLEKRFDFEQVTVKKFRTWAERRQFNREMKRKQAESERPILPANQKLITLSVQDAPTKKEFVINPNGKSEVCILHEYMQRVLKVRPVYNFFECENPSEPFGASVTIDGVTYGSGTASSKKLAKNKAARATLEILIPDFVKQTSEEKPKDSEELEYFNHISIEDSRVYELTSKAGLLSPYQILHECLKRNHGMGDTSIKFEVVPGKNQKSEYVMACGKHTVRGWCKNKRVGKQLASQKILQLLHPHVKNWGSLLRMYGRESSKMVKQETSDKSVIELQQYAKKNKPNLHILSKLQEEMKRLAEEREETRKKPKMSIVASAQPGGEPLCTVDV
B2: Drosha (endogenous, immunoprecipitated from SEMK2 or PER377 nuclear extracts) (enzyme, human, UniProt Q9NRR4 1-1374, looked up)
chain: MMQGNTCHRMSFHPGRGCPRGRGGHGARPSAPSFRPQNLRLLHPQQPPVQYQYEPPSAPSTTFSNSPAPNFLPPRPDFVPFPPPMPPSAQGPLPPCPIRPPFPNHQMRHPFPVPPCFPPMPPPMPCPNNPPVPGAPPGQGTFPFMMPPPSMPHPPPPPVMPQQVNYQYPPGYSHHNFPPPSFNSFQNNPSSFLPSANNSSSPHFRHLPPYPLPKAPSERRSPERLKHYDDHRHRDHSHGRGERHRSLDRRERGRSPDRRRQDSRYRSDYDRGRTPSRHRSYERSRERERERHRHRDNRRSPSLERSYKKEYKRSGRSYGLSVVPEPAGCTPELPGEIIKNTDSWAPPLEIVNHRSPSREKKRARWEEEKDRWSDNQSSGKDKNYTSIKEKEPEETMPDKNEEEEEELLKPVWIRCTHSENYYSSDPMDQVGDSTVVGTSRLRDLYDKFEEELGSRQEKAKAARPPWEPPKTKLDEDLESSSESECESDEDSTCSSSSDSEVFDVIAEIKRKKAHPDRLHDELWYNDPGQMNDGPLCKCSAKARRTGIRHSIYPGEEAIKPCRPMTNNAGRLFHYRITVSPPTNFLTDRPTVIEYDDHEYIFEGFSMFAHAPLTNIPLCKVIRFNIDYTIHFIEEMMPENFCVKGLELFSLFLFRDILELYDWNLKGPLFEDSPPCCPRFHFMPRFVRFLPDGGKEVLSMHQILLYLLRCSKALVPEEEIANMLQWEELEWQKYAEECKGMIVTNPGTKPSSVRIDQLDREQFNPDVITFPIIVHFGIRPAQLSYAGDPQYQKLWKSYVKLRHLLANSPKVKQTDKQKLAQREEALQKIRQKNTMRREVTVELSSQGFWKTGIRSDVCQHAMMLPVLTHHIRYHQCLMHLDKLIGYTFQDRCLLQLAMTHPSHHLNFGMNPDHARNSLSNCGIRQPKYGDRKVHHMHMRKKGINTLINIMSRLGQDDPTPSRINHNERLEFLGDAVVEFLTSVHLYYLFPSLEEGGLATYRTAIVQNQHLAMLAKKLELDRFMLYAHGPDLCRESDLRHAMANCFEALIGAVYLEGSLEEAKQLFGRLLFNDPDLREVWLNYPLHPLQLQEPNTDRQLIETSPVLQKLTEFEEAIGVIFTHVRLLARAFTLRTVGFNHLTLGHNQRMEFLGDSIMQLVATEYLFIHFPDHHEGHLTLLRSSLVNNRTQAKVAEELGMQEYAITNDKTKRPVALRTKTLADLLESFIAALYIDKDLEYVHTFMNVCFFPRLKEFILNQDWNDPKSQLQQCCLTLRTEGKEPDIPLYKTLQTVGPSHARTYTVAVYFKGERIGCGKGPSIQQAEMGAAMDALEKYNFPQMAHQKRFIERKYRQELKEMRWEREHQEREPDETEDIKK
notes: Endogenous protein in nuclear extracts, not a purified recombinant construct; also called nuclear RNase III enzyme; SEMK2 Drosha

What was measured:
[1] = molecular target: B2; assay: co-IP with anti-Drosha Ab, Western blot
Protocol: (§1) FIG. 2A) Western blot detection of immunoprecipitated proteins. […] For unambiguous identification of Drosha, recombinant Drosha exogenously expressed in K562 cells transfected with pCK-Drosha-Flag plasmid was purified by IP (Drosha:FLAG). 20 μg nuclear extracts of leukemic cells or around 2.5 μg of immuno-purified Drosha were used in the analysis. Note that endogenous Drosha was purified from nuclear extracts while Drosha:FLAG was from whole cell lyzate.
(§2) K562 cells were transfected with pCK-drosha-flag by using a Nucleofector apparatus according to the manufacturer's instructions (AMAXA). 2 ×10^8 transfected cells were lysed and subjected to IP with anti-Flag M2 mAb as described in ref. 11. Briefly, 25 mg whole cell lysate were incubated with 500 μg mAb after preclearing with protein G Sepharose (GE Healthcare) at 4° C., O/N. Immunocomplex was precipitated with protein G Sepharose, washed, and the Drosha:FLAG in the precipitate was eluted by adding 3×FLAG peptide at a concentration of 0.4 mg/ml in a buffer containing 30 mM Hepes, pH7.4/100 mM KCl/5% Glycerol/0.2 mM EDTA/7.5 mM MgCl_2/2 mM DTT. Elution was repeated three times, each for 30 min at RT, and eluates were combined. For immunoprecipitation of endogenous Drosha, 50 mg of nuclear extracts from SEMK2 or PER377 cells prepared by the method of Dignam et al. (19) were subjected to IP with 300 μg of anti-Drosha Ab. […]

[2] = molecular target: T1, normal p300 All1 (endogenous) (human, UniProt Q03164 1-2718, limits assumed); assay: co-immunoprecipitation with anti-Drosha Ab from nuclear extracts, Western blot
T1 construct: also called normal All1
T1 sequence (Q03164 1-2718 limits assumed): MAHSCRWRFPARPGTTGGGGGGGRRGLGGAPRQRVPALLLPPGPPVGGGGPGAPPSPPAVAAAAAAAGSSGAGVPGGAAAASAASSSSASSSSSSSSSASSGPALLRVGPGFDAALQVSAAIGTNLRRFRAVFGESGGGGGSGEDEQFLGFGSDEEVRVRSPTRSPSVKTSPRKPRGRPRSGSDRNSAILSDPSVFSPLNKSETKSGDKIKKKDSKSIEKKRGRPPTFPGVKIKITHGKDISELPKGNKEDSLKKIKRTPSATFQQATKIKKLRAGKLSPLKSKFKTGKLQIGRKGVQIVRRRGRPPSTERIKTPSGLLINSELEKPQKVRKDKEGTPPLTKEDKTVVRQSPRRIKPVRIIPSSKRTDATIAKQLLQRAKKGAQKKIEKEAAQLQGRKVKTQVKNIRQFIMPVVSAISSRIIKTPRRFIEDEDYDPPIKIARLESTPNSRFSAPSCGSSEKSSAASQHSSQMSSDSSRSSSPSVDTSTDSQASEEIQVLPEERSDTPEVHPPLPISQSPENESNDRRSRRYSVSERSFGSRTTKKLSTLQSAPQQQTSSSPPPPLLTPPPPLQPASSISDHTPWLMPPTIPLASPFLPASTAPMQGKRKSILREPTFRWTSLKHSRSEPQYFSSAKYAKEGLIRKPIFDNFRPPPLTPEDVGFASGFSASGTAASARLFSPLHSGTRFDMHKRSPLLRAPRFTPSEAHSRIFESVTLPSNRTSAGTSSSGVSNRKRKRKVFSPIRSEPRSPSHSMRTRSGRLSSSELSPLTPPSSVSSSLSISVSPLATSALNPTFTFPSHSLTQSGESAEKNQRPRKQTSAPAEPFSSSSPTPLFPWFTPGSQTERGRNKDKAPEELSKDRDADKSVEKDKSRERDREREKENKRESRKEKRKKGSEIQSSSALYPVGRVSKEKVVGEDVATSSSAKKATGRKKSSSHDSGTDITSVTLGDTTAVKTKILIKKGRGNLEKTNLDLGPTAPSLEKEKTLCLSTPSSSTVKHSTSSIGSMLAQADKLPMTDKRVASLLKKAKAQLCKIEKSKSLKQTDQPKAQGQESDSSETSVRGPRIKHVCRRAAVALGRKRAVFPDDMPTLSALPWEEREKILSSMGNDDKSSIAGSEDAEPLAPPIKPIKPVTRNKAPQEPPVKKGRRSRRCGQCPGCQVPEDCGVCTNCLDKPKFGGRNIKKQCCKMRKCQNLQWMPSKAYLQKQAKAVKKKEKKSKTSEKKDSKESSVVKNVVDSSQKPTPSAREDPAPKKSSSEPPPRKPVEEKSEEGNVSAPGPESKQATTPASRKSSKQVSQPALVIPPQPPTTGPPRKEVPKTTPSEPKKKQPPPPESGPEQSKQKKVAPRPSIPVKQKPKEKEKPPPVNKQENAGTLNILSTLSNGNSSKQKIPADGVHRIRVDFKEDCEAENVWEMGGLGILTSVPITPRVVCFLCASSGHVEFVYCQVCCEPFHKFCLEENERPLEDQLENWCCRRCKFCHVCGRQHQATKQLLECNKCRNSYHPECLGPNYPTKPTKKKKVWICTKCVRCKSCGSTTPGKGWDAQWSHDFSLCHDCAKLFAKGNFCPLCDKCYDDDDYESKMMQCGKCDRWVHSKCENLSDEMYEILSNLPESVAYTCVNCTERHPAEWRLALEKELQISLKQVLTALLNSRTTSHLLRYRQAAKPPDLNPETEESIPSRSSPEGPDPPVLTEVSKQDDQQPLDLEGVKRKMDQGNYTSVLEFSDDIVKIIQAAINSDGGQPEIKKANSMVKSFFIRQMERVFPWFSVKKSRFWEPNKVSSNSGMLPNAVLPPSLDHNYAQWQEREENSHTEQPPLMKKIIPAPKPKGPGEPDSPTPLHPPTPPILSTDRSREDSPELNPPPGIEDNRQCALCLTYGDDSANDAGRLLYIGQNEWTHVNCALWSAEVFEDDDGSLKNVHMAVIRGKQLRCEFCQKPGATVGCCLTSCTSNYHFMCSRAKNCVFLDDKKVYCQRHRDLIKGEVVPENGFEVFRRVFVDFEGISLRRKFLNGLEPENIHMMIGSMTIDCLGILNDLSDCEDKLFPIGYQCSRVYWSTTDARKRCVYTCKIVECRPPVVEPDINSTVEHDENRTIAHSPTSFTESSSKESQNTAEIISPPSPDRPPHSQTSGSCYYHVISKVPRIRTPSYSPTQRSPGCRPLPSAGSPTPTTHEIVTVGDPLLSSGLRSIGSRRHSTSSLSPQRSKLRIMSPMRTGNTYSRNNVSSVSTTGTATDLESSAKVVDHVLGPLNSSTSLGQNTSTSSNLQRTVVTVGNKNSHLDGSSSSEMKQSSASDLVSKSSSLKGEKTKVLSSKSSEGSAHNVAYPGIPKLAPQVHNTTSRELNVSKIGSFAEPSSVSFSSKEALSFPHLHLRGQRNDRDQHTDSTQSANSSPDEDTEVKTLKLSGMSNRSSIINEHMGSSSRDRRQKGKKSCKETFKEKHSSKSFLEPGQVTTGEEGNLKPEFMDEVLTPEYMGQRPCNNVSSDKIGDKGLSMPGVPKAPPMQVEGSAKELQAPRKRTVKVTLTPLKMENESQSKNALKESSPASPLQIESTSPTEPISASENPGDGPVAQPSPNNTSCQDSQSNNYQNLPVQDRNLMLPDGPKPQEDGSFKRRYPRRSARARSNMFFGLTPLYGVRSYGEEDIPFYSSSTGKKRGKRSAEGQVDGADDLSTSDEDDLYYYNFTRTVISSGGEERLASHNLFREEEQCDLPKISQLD
Protocol: as §1, §2

binding result [1] | binding result [2] | Binder
binds |  | B1
 | no binding | B2
